Laboratory results as given in patent US20070072239A1 (Pfizer, published 2007).
Where a chain is given by its changes, count along the chain named. Values belong to the binder of their own block, whether it stands above or below them.

Molecular target: T1, Wnt3 (human, UniProt P56703 22-355 at identity 1.00), limits assumed)
T1 chain: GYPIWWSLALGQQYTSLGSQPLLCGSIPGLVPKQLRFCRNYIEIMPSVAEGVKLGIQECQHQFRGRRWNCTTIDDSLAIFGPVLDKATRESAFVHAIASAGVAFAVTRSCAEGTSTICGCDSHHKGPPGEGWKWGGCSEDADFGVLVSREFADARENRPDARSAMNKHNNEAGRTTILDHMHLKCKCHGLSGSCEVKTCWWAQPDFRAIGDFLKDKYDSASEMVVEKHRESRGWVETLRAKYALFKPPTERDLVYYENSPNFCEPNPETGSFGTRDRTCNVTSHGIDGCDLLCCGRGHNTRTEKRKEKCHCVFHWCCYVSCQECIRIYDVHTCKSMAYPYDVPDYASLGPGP
Assay: cell-based or functional assay

Wnt3 antagonist function relative to SFRP-1 (TCF-Luciferase reporter) (% less active): 60
B2: human SFRP-3 (receptor)
chain: AACEPVRIPLCKSLPWNMTKMPNHLHHSTQDNAILAIEQFEGLLGTHCSPDLLFFLCAMYAPICTIDFQHEPIKPCKSVCERARQGCEPILIKYRHSWPENLACEELPVYDRGVCISPEAIVTADGADFPMDSSNGNCRGASSERCKCKPIRATQKTYFRNNYNYVIRAKVKEIKTKCHDVTAVVEVKEILKSSLVNIPRDTVNLYTSSGCLCPPLNVNEEYIIMGYEDEERSRLLLVEGSIAEKWKDRLGKKVKRWDMKLRHLGLSKSDSSNSDSTQSQKSGRNSNPRQARN

loss of Wnt3 antagonist activity relative to SFRP-1 (TCF-Luciferase reporter): ~40 % loss of activity
B3: SFRP-1/SFRP-2 (1-248/238-295) chimera (receptor)
chain: SEYDYVSFQSDIGPYQSGRFYTKPPQCVDIPADLRLCHNVGYKKMVLPNLLEHETMAEVKQQASSWVPLLNKNCHAGTQVFLCSLFAPVCLDRPIYPCRWLCEAVRDSCEPVMQFFGFYWPEMLKCDKFPEGDVCIAMTPPNATEASKPQGTTVCPPCDNELKSEAIIEHLCASEFALRMKIKEVKKENGDKKIVPKKKKPLKLGPIKKKDLKKLVLWLKDSLQCTCEEMNDINAPYLVMGQKQGGELVITSVKRWQKGQREFKRISRSIRKLQC

inhibition of Wnt3-mediated upregulation of the 16xTCF-Luciferase activity, relative to SFRP-1 (% less active): 25
B5: human SFRP-2 (receptor)
chain: LFLFGQPDFSYKRSNCKPIPANLQLCHGIEYQNMRLPNLLGHETMKEVLEQAGAWIPLVMKQCHPDTKKFLCSLFAPVCLDDLDETIQPCHSLCVQVKDRCAPVMSAFGFPWPDMLECDRFPQDNDLCIPLASSDHLLPATEEAPKVCEACKNKNDDDNDIMETLCKNDFALKIKVKEITYINRDTKIILETKSKTIYKLNGVSERDLKKSVLWLKDSLQCTCEEMNDINAPYLVMGQKQGGELVITSVKRWQKGQREFKRISRSIRKLQC

loss of Wnt3 antagonist activity relative to SFRP-1 (TCF-Luciferase reporter): ~40 % loss of activity
B6: SFRP-1/SFRP-2(1-226)/(214-295) chimera (receptor)
chain: SEYDYVSFQSDIGPYQSGRFYTKPPQCVDIPADLRLCHNVGYKKMVLPNLLEHETMAEVKQQASSWVPLLNKNCHAGTQVFLCSLFAPVCLDRPIYPCRWLCEAVRDSCEPVMQFFGFYWPEMLKCDKFPEGDVCIAMTPPNATEASKPQGTTVCPPCDNELKSEAIIEHLCASEFALRMKIKEVKKENGDKKIVLETKSKTIYKLNGVSERDLKKSVLWLKDSLQCTCEEMNDINAPYLVMGQKQGGELVITSVKRWQKGQREFKRISRSIRKLQC

Wnt3 inhibitory activity relative to SFRP-1 (TCF-Luciferase reporter): ~20 % of SFRP-1 activity
loss of Wnt3 antagonist activity relative to SFRP-1 (TCF-Luciferase reporter): ~70 % loss of activity
B7: SFRP-1/SFRP-2(1-295/285-295) chimera (receptor)
chain: SEYDYVSFQSDIGPYQSGRFYTKPPQCVDIPADLRLCHNVGYKKMVLPNLLEHETMAEVKQQASSWVPLLNKNCHAGTQVFLCSLFAPVCLDRPIYPCRWLCEAVRDSCEPVMQFFGFYWPEMLKCDKFPEGDVCIAMTPPNATEASKPQGTTVCPPCDNELKSEAIIEHLCASEFALRMKIKEVKKENGDKKIVPKKKKPLKLGPIKKKDLKKLVLYLKNGADCPCHQLDNLSHHFLIMGRKVKSQYLLTAIHKWDKKNKEFKRISRSIRKLQC

inhibition of the Wnt-mediated upregulation of the 16xTCF-Luciferase reporter in U2OS cells: 90 % inhibition
B8: hOB SFRP-1 (human osteoblast secreted frizzled-related protein-1), wild-type full length (receptor)
chain: SEYDYVSFQSDIGPYQSGRFYTKPPQCVDIPADLRLCHNVGYKKMVLPNLLEHETMAEVKQQASSWVPLLNKNCHAGTQVFLCSLFAPVCLDRPIYPCRWLCEAVRDSCEPVMQFFGFYWPEMLKCDKFPEGDVCIAMTPPNATEASKPQGTTVCPPCDNELKSEAIIEHLCASEFALRMKIKEVKKENGDKKIVPKKKKPLKLGPIKKKDLKKLVLYLKNGADCPCHQLDNLSHHFLIMGRKVKSQYLLTAIHKWDKKNKEFKNFMKKMKNHECPTFQSVFK

Wnt antagonist function compared to the wild type SFRP-1 (TCF-Luciferase reporter) (% of wild type SFRP-1): 40
B13: SFRP-1 tyrosine 73 to serine mutant (receptor)
chain: B8 chain with Y42S

loss of Wnt3 antagonist activity relative to SFRP-1 (TCF-Luciferase reporter) (% loss of activity): 30
B15: SFRP-1 CRD mutant LLEHE (amino acids 81-85) to HLHHS (receptor)
chain: B8 chain with L50H, E52H, E54S

Wnt antagonist function compared to the wild type SFRP-1 (TCF-Luciferase reporter) (% of wild type SFRP-1): 40
B16: SFRP-1 tyrosine 73 to asparagine mutant (receptor)
chain: B8 chain with Y42N

The remaining lines, values behind:

B1: truncated SFRP-1 (Δ167-314) containing the CRD alone (receptor)
chain: SEYDYVSFQSDIGPYQSGRFYTKPPQCVDIPADLRLCHNVGYKKMVLPNLLEHETMAEVKQQASSWVPLLNKNCHAGTQVFLCSLFAPVCLDRPIYPCRWLCEAVRDSCEPVMQFFGFYWPEMLKCDKFPEGDVC
Wnt antagonist activity relative to full length SFRP-1 (TCF-Luciferase reporter, U2OS cells): ~80 % of full length SFRP-1 activity

B4: 3' His tagged SFRP-1 (receptor)
chain: SEYDYVSFQSDIGPYQSGRFYTKPPQCVDIPADLRLCHNVGYKKMVLPNLLEHETMAEVKQQASSWVPLLNKNCHAGTQVFLCSLFAPVCLDRPIYPCRWLCEAVRDSCEPVMQFFGFYWPEMLKCDKFPEGDVCIAMTPPNATEASKPQGTTVCPPCDNELKSEAIIEHLCASEFALRMKIKEVKKENGDKKIVPKKKKPLKLGPIKKKDLKKLVLYLKNGADCPCHQLDNLSHHFLIMGRKVKSQYLLTAIHKWDKKNKEFKNFMKKMKNHECPTFQSVFKHHHHHH
loss of Wnt inhibitory function relative to SFRP-1 (TCF-Luciferase reporter) (% loss of function): 30

B9: SFRP-1 hyaluronan-binding domain mutant, distal lysine residues to alanine (receptor)
chain: B8 chain with K208A, K209A, K210A, K213A, K214A
loss of Wnt3 antagonist activity relative to SFRP-1 (TCF-Luciferase reporter) (% loss of activity): 15

B10: SFRP-1 tyrosine 73 to aspartate mutant (receptor)
chain: B8 chain with Y42D
Wnt antagonist function compared to the wild type SFRP-1 (TCF-Luciferase reporter) (% of wild type SFRP-1): 40

B11: SFRP-1 mutant with a total of 10 lysine residues in the hyaluronan domain changed into alanine (receptor)
chain: B8 chain with K197A, K198A, K199A, K200A, K203A, K208A, K209A, K210A, K213A, K214A
loss of Wnt3 antagonist activity relative to SFRP-1 (TCF-Luciferase reporter) (% loss of activity): 35

B12: SFRP-1 CRD mutant … to … (receptor)
chain: B8 chain with H38K, N39S, V40L, G41P, Y42W, K43N, K44M, M45T, V46K, L47M
loss of Wnt3 antagonist activity relative to SFRP-1 (TCF-Luciferase reporter) (% loss of activity): 45

B14: SFRP-1 tyrosine 73 to alanine mutant (receptor)
chain: B8 chain with Y42A
Wnt antagonist function compared to the wild type SFRP-1 (TCF-Luciferase reporter) (% of wild type SFRP-1): 40

B17: SFRP-1 tyrosine 73 to phenylalanine mutant (receptor)
chain: B8 chain with Y42F
loss of Wnt antagonist function relative to SFRP-1 (TCF-Luciferase reporter) (% loss of function): 20

B18: SFRP-1 CRD mutant KKMVL to NMTKM (receptor)
chain: B8 chain with K43N, K44M, M45T, V46K, L47M
loss of Wnt3 antagonist activity relative to SFRP-1 (TCF-Luciferase reporter) (% loss of activity): 60
